Publication PMC8294767 (2021)

How the values were obtained:
galectin-3 [1] = target: T1, galectin-3 (human (endogenous in A2780), UniProt P17931 1-250, biotinylated (printed: 'biotinylated galectin-3')); assay: SPR
galectin-3 [2] = target: T1, galectin-3; assay: SPR; remark: listed apart in the source
galectin-3 [3] = target: T1, galectin-3; assay: SPR; platelets exposed to Revacept
galectin-3 [4] = target: T1, galectin-3; assay: SPR; platelets exposed to anti-GPVI mAb

T1 sequence (P17931 whole entry): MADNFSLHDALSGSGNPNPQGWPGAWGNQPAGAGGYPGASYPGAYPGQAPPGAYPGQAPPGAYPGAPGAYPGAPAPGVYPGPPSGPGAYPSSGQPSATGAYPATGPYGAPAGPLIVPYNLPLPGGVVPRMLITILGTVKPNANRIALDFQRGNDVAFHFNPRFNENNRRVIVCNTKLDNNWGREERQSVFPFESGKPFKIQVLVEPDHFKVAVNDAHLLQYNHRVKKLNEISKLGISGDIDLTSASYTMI

Kd (galectin-3 [1]): 42.2 µM
Kd (galectin-3 [2]): 48.6 µM
Kd (galectin-3 [3]): 16.2 µM
Kd (galectin-3 [4]): 21.4 µM
B1: platelet glycoprotein VI (GPVI) (receptor)
chain: QSGPLPKPSLQALPSSLVPLEKPVTLRCQGPPGVDLYRLEKLSSSRYQDQAVLFIPAMKRSLAGRYRCSYQNGSLWSLPSDQLELVATGVFAKPSLSAQPGPAVSSGGDVTLQCQTRYGFDQFALYKEGDPAPYKNPERWYRASFPIITVTAAHSGTYRCYSFSSRDPYLWSAPSDPLELVVTGTSVTPSRLPTEPPSPVAEFSEATAELTVSFTNEVFTTETSRSITASPKESDSPAGPARQYYTKGNLVRICLGAVILIILAGFLAEDWHSRRKRLRHRGRAVQRPLPPLPPLPLTRKSNGGQDGGRQDVHSRGLCS
